The values below are quoted from earlier work in patent publication US20070231406A1, “Use of gallium to treat biofilm-associated infections” (priority 2006, published 2007).

The subject of this data set is Pseudomonas aeruginosa biofilm. As to conditions: 20 μg/ml lactoferrin.

B1: lactoferrin (protein, UniProt P02788 20-710, looked up)
Lactotransferrin: GRRRSVQWCAVSQPEATKCFQWQRNMRKVRGPPVSCIKRDSPIQCIQAIAENRADAVTLDGGFIYEAGLAPYKLRPVAAEVYGTERQPRTHYYAVAVVKKGGSFQLNELQGLKSCHTGLRRTAGWNVPIGTLRPFLNWTGPPEPIEAAVARFFSASCVPGADKGQFPNLCRLCAGTGENKCAFSSQEPYFSYSGAFKCLRDGAGDVAFIRESTVFEDLSDEAERDEYELLCPDNTRKPVDKFKDCHLARVPSHAVVARSVNGKEDAIWNLLRQAQEKFGKDKSPKFQLFGSPSGQKDLLFKDSAIGFSRVPPRIDSGLYLGSGYFTAIQNLRKSEEEVAARRARVVWCAVGEQELRKCNQWSGLSEGSVTCSSASTTEDCIALVLKGEADAMSLDGGYVYTAGKCGLVPVLAENYKSQQSSDPDPNCVDRPVEGYLAVAVVRRSDTSLTWNSVKGKKSCHTAVDRTAGWNIPMGLLFNQTGSCKFDEYFSQSCAPGSDPRSNLCALCIGDEQGENKCVPNSNERYYGYTGAFRCLAENAGDVAFVKDVTVLQNTDGNNNEAWAKDLKLADFALLCLDGKRKPVTEARSCHLAMAPNHAVVSRMDKVERLKQVLLHQQAKFGRNGSDCPDKFCLFQSETKNLLFNDNTECLARLHGKTTYEKYLGPQYVAGITNLKKCSTSPLLEACEFLRK
Turning to B1, the “Pseudomonas aeruginosa biofilm formation” value is listed as “inhibited”.
